Laboratory results taken from patent US20140087995A1 (published 2014).
Numbered stars: 1 amine (or outer) side, 2 acyl side, 3 side chain; on linkers, the order of the positions; unused ones are H or OH. Bridge positions count the residues as written; N and C are the ends. Side chains are listed from the residue outwards. Ends that are not written are not given here. * marks the point of attachment. C20 diacid = O=C(O)CCCCCCCCCCCCCCCCCCC(=O)*; γGlu = O=C(O)[C@H](CCC(=O)[*:2])N[*:1]; AEEA = NCCOCCOCC(=O)O

T1: human calcitonin receptor (human, UniProt P30988 25-474)
T1 construct: whole, on cells; also called hCTR; hCT
T1 sequence (looked up): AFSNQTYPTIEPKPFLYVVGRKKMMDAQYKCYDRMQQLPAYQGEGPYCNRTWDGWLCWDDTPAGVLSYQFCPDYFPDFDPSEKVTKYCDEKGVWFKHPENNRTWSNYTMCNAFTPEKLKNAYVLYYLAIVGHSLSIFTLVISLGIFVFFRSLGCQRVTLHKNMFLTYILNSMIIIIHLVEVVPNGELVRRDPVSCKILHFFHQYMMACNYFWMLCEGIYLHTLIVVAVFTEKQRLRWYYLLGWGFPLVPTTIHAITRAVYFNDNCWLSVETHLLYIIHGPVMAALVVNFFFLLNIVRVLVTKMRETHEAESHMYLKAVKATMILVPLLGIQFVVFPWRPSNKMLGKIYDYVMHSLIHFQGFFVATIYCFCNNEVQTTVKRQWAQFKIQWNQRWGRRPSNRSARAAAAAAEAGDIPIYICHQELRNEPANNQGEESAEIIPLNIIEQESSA


How the values were obtained:
[1] = target: T1, human calcitonin receptor; experiment: ratio of IC50 at human calcitonin receptor to IC50 at human amylin receptor (SPA competition assays)
Protocol: The resulting pellet was resuspended, homogenized and centrifuged (20.000 rpm, 15 min) in a buffer containing 20 mM Na-HEPES and 0.1 mM EDTA (pH 7.4, buffer 2). The resulting pellet was resuspended in buffer 2 and protein concentration was measured (BCA protein Assay, Pierce). The homogenate was kept cold during the whole procedure. The membranes were kept at −80° C. until use. The assay was performed in a 384 well Optiplate (PerkinElmer) in a total volume of 40 ul. Membranes were mixed with SPA beads. Final concentration of membranes 35 ng/μL final and SPA beads was 0.05 mg/well. Test-compounds were dissolved in DMSO and further diluted in assay buffer (50 mM Hepes, pH 7.4, 1 mM CaCl2, 5 mM MgCl₂, 0.1% OA and 0.02% Tween20). […] The final mixture was incubated with shaking at 400 rpm for 120 min at 25° C. prior to centrifugation (1500 rpm, 10 min). Samples were analyzed on TopCounter™ (Packard). The IC₅₀ was calculated using (one site binding competition analysis) GraphPad Prism5 as a measure of receptor affinity.
Membranes were prepared in the following way; the cells were rinsed with PBS and incubated with Versene for approximately 5 min before harvesting. The cells were flushed with PBS and the cell-suspension was centrifuged for 5 min at 1000 rpm. Cells were homogenized (Ultrathurrax) in a buffer containing 20 mM Na-HEPES and 10 mM EDTA (pH 7.4) and centrifuged at 20.000 rpm for 15 min. The resulting pellet was resuspended, homogenized and centrifuged (20.000 rpm, 15 min) in a buffer containing 20 mM Na-HEPES and 0.1 mM EDTA (pH 7.4, buffer 2). The resulting pellet was resuspended in buffer 2 and protein concentration was measured (BCA protein Assay, Pierce). The homogenate was kept cold during the whole procedure. The membranes were kept at −80° C. until use. Assay was performed in a 384 well Optiplate (PerkinElmer) in a total volume of 40 ul. Membranes were mixed with SPA beads.

[2] = target: T1, human calcitonin receptor; experiment: SPA radioligand competition (125I-calcitonin), membranes of BHK cells with human calcitonin receptor
Protocol: Membranes were prepared in the following way; the cells were rinsed with PBS and incubated with Versene for approximately 5 min before harvesting. The cells were flushed with PBS and the cell-suspension was centrifuged for 5 min at 1000 rpm. Cells were homogenized (Ultrathurrax) in a buffer containing 20 mM Na-HEPES and 10 mM EDTA (pH 7.4) and centrifuged at 20.000 rpm for 15 min. The resulting pellet was resuspended, homogenized and centrifuged (20.000 rpm, 15 min) in a buffer containing 20 mM Na-HEPES and 0.1 mM EDTA (pH 7.4, buffer 2). The resulting pellet was resuspended in buffer 2 and protein concentration was measured (BCA protein Assay, Pierce). The homogenate was kept cold during the whole procedure. The membranes were kept at −80° C. until use. Assay was performed in a 384 well Optiplate (PerkinElmer) in a total volume of 40 ul. Membranes were mixed with SPA beads. Final concentration of membranes 35 ng/μL final and Final concentration of SPA beads was 0.05 mg/well. Test-compounds were dissolved in DMSO and further diluted in assay buffer (50 mM Hepes, pH 7.4, 1 mM CaCl2, 5 mM MgCl₂, 0.1% OA and 0.02% Tween20). […] The final mixture was incubated for 120 min with shaking at 400 rpm at 25° C. prior to centrifugation (1500 rpm, 10 min). Samples were analyzed on TopCounter™ (Packard). The […] was calculated using (one site binding competition analysis) GraphPad Prism5 as a measure of receptor affinity.

Binder | Ratio hCT/hAmylin binding [1] | IC50 [2]
K([AEEA-γGlu-C20 diacid])CNTATCATQRLAHFLRHSSPNFGAIPSSTNVGRNTY-NH2 (disulfide 2-7; N-terminus assumed; SMILES CC[C@H](C)[C@H](NC(=O)[C@H](C)NC(=O)CNC(=O)[C@H](Cc1ccccc1)NC(=O)[C@H](CC(N)=O)NC(=O)[C@@H]1CCCN1C(=O)[C@H](CO)NC(=O)[C@H](CO)NC(=O)[C@H](Cc1c[nH]cn1)NC(=O)[C@H](CCCNC(=N)N)NC(=O)[C@H](CC(C)C)NC(=O)[C@H](Cc1ccccc1)NC(=O)[C@H](Cc1c[nH]cn1)NC(=O)[C@H](C)NC(=O)[C@H](CC(C)C)NC(=O)[C@H](CCCNC(=N)N)NC(=O)[C@H](CCC(N)=O)NC(=O)[C@@H](NC(=O)[C@H](C)NC(=O)[C@@H]1CSSC[C@H](NC(=O)[C@@H](N)CCCCNC(=O)COCCOCCNC(=O)CC[C@H](NC(=O)CCCCCCCCCCCCCCCCCCC(=O)O)C(=O)O)C(=O)N[C@@H](CC(N)=O)C(=O)N[C@@H]([C@@H](C)O)C(=O)N[C@@H](C)C(=O)N[C@@H]([C@@H](C)O)C(=O)N1)[C@@H](C)O)C(=O)N1CCC[C@H]1C(=O)N[C@@H](CO)C(=O)N[C@@H](CO)C(=O)N[C@H](C(=O)N[C@@H](CC(N)=O)C(=O)N[C@H](C(=O)NCC(=O)N[C@@H](CCCNC(=N)N)C(=O)N[C@@H](CC(N)=O)C(=O)N[C@H](C(=O)N[C@@H](Cc1ccc(O)cc1)C(N)=O)[C@@H](C)O)C(C)C)[C@@H](C)O, also called compound 84) | 120 | 88.9 nM
K([AEEA-γGlu-C20 diacid])CNTATCATQRLAHFLRHSSPNFGAIPSSTNVGHNTY-NH2 (disulfide 2-7; N-terminus assumed; SMILES CC[C@H](C)[C@H](NC(=O)[C@H](C)NC(=O)CNC(=O)[C@H](Cc1ccccc1)NC(=O)[C@H](CC(N)=O)NC(=O)[C@@H]1CCCN1C(=O)[C@H](CO)NC(=O)[C@H](CO)NC(=O)[C@H](Cc1c[nH]cn1)NC(=O)[C@H](CCCNC(=N)N)NC(=O)[C@H](CC(C)C)NC(=O)[C@H](Cc1ccccc1)NC(=O)[C@H](Cc1c[nH]cn1)NC(=O)[C@H](C)NC(=O)[C@H](CC(C)C)NC(=O)[C@H](CCCNC(=N)N)NC(=O)[C@H](CCC(N)=O)NC(=O)[C@@H](NC(=O)[C@H](C)NC(=O)[C@@H]1CSSC[C@H](NC(=O)[C@@H](N)CCCCNC(=O)COCCOCCNC(=O)CC[C@H](NC(=O)CCCCCCCCCCCCCCCCCCC(=O)O)C(=O)O)C(=O)N[C@@H](CC(N)=O)C(=O)N[C@@H]([C@@H](C)O)C(=O)N[C@@H](C)C(=O)N[C@@H]([C@@H](C)O)C(=O)N1)[C@@H](C)O)C(=O)N1CCC[C@H]1C(=O)N[C@@H](CO)C(=O)N[C@@H](CO)C(=O)N[C@H](C(=O)N[C@@H](CC(N)=O)C(=O)N[C@H](C(=O)NCC(=O)N[C@@H](Cc1c[nH]cn1)C(=O)N[C@@H](CC(N)=O)C(=O)N[C@H](C(=O)N[C@@H](Cc1ccc(O)cc1)C(N)=O)[C@@H](C)O)C(C)C)[C@@H](C)O, also called compound 80) | 68.1 | 19.8 nM

Binders with a lower IC50 [2], results first:

Ratio hCT/hAmylin binding [1] | IC50 [2] | Binder
65.3 | 8.68 nM | K([AEEA-γGlu-C20 diacid])CNTATCATQRLAHFLRHSSPNFGAIPSSTNVGSNTY-NH2 (disulfide 2-7; N-terminus assumed; SMILES CC[C@H](C)[C@H](NC(=O)[C@H](C)NC(=O)CNC(=O)[C@H](Cc1ccccc1)NC(=O)[C@H](CC(N)=O)NC(=O)[C@@H]1CCCN1C(=O)[C@H](CO)NC(=O)[C@H](CO)NC(=O)[C@H](Cc1c[nH]cn1)NC(=O)[C@H](CCCNC(=N)N)NC(=O)[C@H](CC(C)C)NC(=O)[C@H](Cc1ccccc1)NC(=O)[C@H](Cc1c[nH]cn1)NC(=O)[C@H](C)NC(=O)[C@H](CC(C)C)NC(=O)[C@H](CCCNC(=N)N)NC(=O)[C@H](CCC(N)=O)NC(=O)[C@@H](NC(=O)[C@H](C)NC(=O)[C@@H]1CSSC[C@H](NC(=O)[C@@H](N)CCCCNC(=O)COCCOCCNC(=O)CC[C@H](NC(=O)CCCCCCCCCCCCCCCCCCC(=O)O)C(=O)O)C(=O)N[C@@H](CC(N)=O)C(=O)N[C@@H]([C@@H](C)O)C(=O)N[C@@H](C)C(=O)N[C@@H]([C@@H](C)O)C(=O)N1)[C@@H](C)O)C(=O)N1CCC[C@H]1C(=O)N[C@@H](CO)C(=O)N[C@@H](CO)C(=O)N[C@H](C(=O)N[C@@H](CC(N)=O)C(=O)N[C@H](C(=O)NCC(=O)N[C@@H](CO)C(=O)N[C@@H](CC(N)=O)C(=O)N[C@H](C(=O)N[C@@H](Cc1ccc(O)cc1)C(N)=O)[C@@H](C)O)C(C)C)[C@@H](C)O, also called compound 69)
32 | 1.53 nM | K([AEEA-γGlu-C20 diacid])CNTATCATQRLAGFLRHSSPNFGAIPSSTPVGSNTY-NH2 (disulfide 2-7; N-terminus assumed; SMILES CC[C@H](C)[C@H](NC(=O)[C@H](C)NC(=O)CNC(=O)[C@H](Cc1ccccc1)NC(=O)[C@H](CC(N)=O)NC(=O)[C@@H]1CCCN1C(=O)[C@H](CO)NC(=O)[C@H](CO)NC(=O)[C@H](Cc1c[nH]cn1)NC(=O)[C@H](CCCNC(=N)N)NC(=O)[C@H](CC(C)C)NC(=O)[C@H](Cc1ccccc1)NC(=O)CNC(=O)[C@H](C)NC(=O)[C@H](CC(C)C)NC(=O)[C@H](CCCNC(=N)N)NC(=O)[C@H](CCC(N)=O)NC(=O)[C@@H](NC(=O)[C@H](C)NC(=O)[C@@H]1CSSC[C@H](NC(=O)[C@@H](N)CCCCNC(=O)COCCOCCNC(=O)CC[C@H](NC(=O)CCCCCCCCCCCCCCCCCCC(=O)O)C(=O)O)C(=O)N[C@@H](CC(N)=O)C(=O)N[C@@H]([C@@H](C)O)C(=O)N[C@@H](C)C(=O)N[C@@H]([C@@H](C)O)C(=O)N1)[C@@H](C)O)C(=O)N1CCC[C@H]1C(=O)N[C@@H](CO)C(=O)N[C@@H](CO)C(=O)N[C@H](C(=O)N1CCC[C@H]1C(=O)N[C@H](C(=O)NCC(=O)N[C@@H](CO)C(=O)N[C@@H](CC(N)=O)C(=O)N[C@H](C(=O)N[C@@H](Cc1ccc(O)cc1)C(N)=O)[C@@H](C)O)C(C)C)[C@@H](C)O, also called compound 71)
